The Immune Epitope Database (IEDB)

Tests used:
Experiment in all cases: IEDB peptide-MHC binding, purified MHC/competitive/radioactivity; filed as Kd, often an IC50 or EC50 that approximates it; ≥ and ≤ were set here for values at or beyond the usual limits of such assays
[1] = target: HLA-A*68:01
[2] = target: HLA-A*31:01
[3] = target: HLA-A*11:01
[4] = target: HLA-A*33:01
[5] = target: HLA-A*03:01
[6] = source organism: Vaccinia virus WR
[7] = source organism: Dengue virus 3 Martinique/1243/1999
[8] = source organism: Dengue virus 1 Brazil/97-11/1997
[9] = source organism: Dengue virus 2 Jamaica/1409/1983
[10] = source organism: SARS coronavirus Tor2
[11] = source organism: Lassa virus GA391
[12] = source organism: Dengue virus 4 Philippines/H241/1956
[13] = source organism: Mammarenavirus juninense

Sequence	Kd [1, 6]	Kd [2, 6]	Kd [3, 6]	Kd [4, 6]	Kd [5, 6]	other results
KAIITPVVFY	6700 nM	≥ 70000 nM	900 nM	≥ 70000 nM	7470 nM	
KAIKILIGFR						Kd ([2]; source organism: Dengue virus 4 Dominica/814669/1981): 8.62 nM
KALMQLTTK	5800 nM	135 nM	87.9 nM	18600 nM	181 nM	
KEFKDFAAGR						Kd [2, 7]: 405 nM
KFQADSPKR						Kd [2, 8]: 39.9 nM
KLIHEWCCR						Kd [2, 7]: 39.6 nM
KSEFQIYKK						Kd [3, 9]: 244 nM
KSSQRDTILK						Kd ([3]; source organism: Mammarenavirus brazilense): 33.2 nM
KTNCCRFQEK						Kd [1, 10]: 4220 nM; Kd [2, 10]: 50.5 nM; Kd [3, 10]: 33.3 nM; Kd [4, 10]: ≥ 37700 nM; Kd [5, 10]: 38.3 nM
KTQVGVGVQK						Kd [3, 7]: 59.5 nM
KVKYLYFIK						Kd [1, 10]: 968 nM; Kd [2, 10]: 0.138 nM; Kd [3, 10]: 49.1 nM; Kd [4, 10]: 9300 nM; Kd [5, 10]: 113 nM
LILNFLDWIK	165 nM	163 nM	9.27 nM	7300 nM	25.1 nM	
LILSNKLLY	5470 nM	5630 nM	192 nM	13200 nM	13.7 nM	
LIPLSEMVVK	1490 nM	7380 nM	55.2 nM	≥ 24900 nM	766 nM	
LMSGRGIGK						Kd ([5]; source organism: Dengue virus 2 Peru/IQT2913/1996): 48 nM
LMSIISTFH						Kd [1, 11]: 3160 nM; Kd [2, 11]: 481 nM; Kd [3, 11]: 11200 nM; Kd [4, 11]: ≥ 77700 nM; Kd [5, 11]: 2230 nM
LSKDKMDSFK	1.46 nM	27.8 nM	15 nM	304 nM	25.1 nM	
MGITAEWLWR						Kd [2, 7]: 88.5 nM
MLLQFAYSNR						Kd [1, 10]: 50.8 nM; Kd [2, 10]: 22.5 nM; Kd [3, 10]: 860 nM; Kd [4, 10]: 114 nM; Kd [5, 10]: 164 nM
MSSSVDVDIY	250 nM	≥ 70000 nM	12500 nM	≥ 29700 nM	≥ 25900 nM	
MTHRRPTIEK						Kd [1, 7]: 196 nM; Kd [3, 7]: 117 nM; Kd [5, 7]: 5.64 nM
MVEPWLSSK						Kd [3, 12]: 648 nM
NFIPIIYSK	76.9 nM	13.9 nM	212 nM	25.6 nM	8660 nM	
NMSFRDLGR						Kd [4, 9]: 8.95 nM
NSINNQLMY	104 nM	≥ 77900 nM	132 nM	≥ 77700 nM	4650 nM	

Sequence	Kd [1, 6]	Kd [2, 6]	Kd [3, 6]	Kd [4, 6]	Kd [5, 6]	other results
NSNIIKNKK	241 nM	1250 nM	1240 nM	4300 nM	10200 nM	
NVYADSFVVK						Kd [1, 10]: 29.3 nM; Kd [2, 10]: 386 nM; Kd [3, 10]: 101 nM; Kd [4, 10]: 972 nM; Kd [5, 10]: 76.5 nM
PFEKEFTSDY	≥ 70200 nM	≥ 70000 nM	≥ 69800 nM	≥ 70000 nM	≥ 70100 nM	
PFLALGFFLR						Kd [2, 7]: 186 nM; Kd [4, 7]: 286 nM
PLLCNLNKSH						Kd [1, 13]: ≥ 45800 nM; Kd [2, 13]: ≥ 70000 nM; Kd [3, 13]: ≥ 69700 nM; Kd [4, 13]: ≥ 70000 nM; Kd [5, 13]: ≥ 70000 nM
PSRSKMLKR	≥ 77700 nM	1890 nM	5560 nM	≥ 51600 nM	16.4 nM	
PSVNEYHMLK	469 nM	408 nM	13.7 nM	11600 nM	10.2 nM	
QAELTSNCTR	240 nM	801 nM	2430 nM	818 nM	2530 nM	
QIDRLEDLSK	2310 nM	6790 nM	255 nM	14700 nM	1450 nM	
QLCYCPASKK	468 nM	12500 nM	96.2 nM	≥ 59500 nM	170 nM	
QQQGQTVTK						Kd [1, 10]: ≥ 50500 nM; Kd [2, 10]: 3030 nM; Kd [3, 10]: 476 nM; Kd [4, 10]: ≥ 30400 nM; Kd [5, 10]: 16600 nM
RIGTAATKR	325 nM	17.2 nM	2420 nM	≥ 77700 nM	180 nM	
RIGTAATKRY	≥ 59600 nM	≥ 70000 nM	≥ 69800 nM	≥ 70000 nM	1250 nM	
RILQRGLLGR						Kd [2, 8]: ≥ 70000 nM; Kd [5, 8]: 16.4 nM
RTYSDPLALR						Kd [1, 8]: 18.8 nM; Kd [2, 8]: ≥ 70000 nM; Kd [3, 8]: 92.1 nM
SAAIDGEYR						Kd [1, 8]: 41.6 nM
SAKLQWFVER						Kd [2, 7]: 34.7 nM; Kd [4, 7]: 83 nM
STSQETWNR						Kd [1, 8]: 68.8 nM
TFKVPHAKR						Kd [2, 12]: 1.2 nM; Kd [4, 12]: 15.8 nM
TILIKVEYK						Kd [3, 7]: 1250 nM
TLLSLTFIK						Kd [3, 8]: 12.3 nM; Kd [5, 8]: 1.36 nM
TTVITPMMR						Kd [1, 8]: 34.6 nM
VTFKVPHAK						Kd [1, 12]: 177 nM; Kd [3, 12]: 53.2 nM; Kd [5, 12]: 10.2 nM
YLALLAAFK						Kd [1, 9]: 18.4 nM; Kd [5, 9]: 1.32 nM
YMPSMKRFRR						Kd [1, 9]: 1110 nM; Kd [2, 9]: 10.2 nM; Kd [4, 9]: 10.7 nM
